In US20210179666A1 (REGENTS OF THE UNIVERSITY OF MINNESOTA, published 2021):
Like-named read-outs stand apart in the source and are kept apart here. Square brackets hold non-standard residues; d marks the D form.

B1: ZMK 2-82 (peptide)
peptide: cyclo(PRFFNVF[dP])
notes: Ala115Val SNP in the Asn scaffold; also called c[Pro-Arg-Phe-Phe-Asn-Val-Phe-DPro]
B2: ZMK 3-18 (peptide)
peptide: cyclo(PCFFNAF[dP])
notes: Arg111Cys SNP in the Asn scaffold; also called c[Pro-Cys-Phe-Phe-Asn-Ala-Phe-DPro]

How the values were obtained:
[1] = biological target: T1, human melanocortin 4 receptor (human, UniProt P32245 1-332); assay: cell-based or functional assay
T1 sequence (P32245 whole entry): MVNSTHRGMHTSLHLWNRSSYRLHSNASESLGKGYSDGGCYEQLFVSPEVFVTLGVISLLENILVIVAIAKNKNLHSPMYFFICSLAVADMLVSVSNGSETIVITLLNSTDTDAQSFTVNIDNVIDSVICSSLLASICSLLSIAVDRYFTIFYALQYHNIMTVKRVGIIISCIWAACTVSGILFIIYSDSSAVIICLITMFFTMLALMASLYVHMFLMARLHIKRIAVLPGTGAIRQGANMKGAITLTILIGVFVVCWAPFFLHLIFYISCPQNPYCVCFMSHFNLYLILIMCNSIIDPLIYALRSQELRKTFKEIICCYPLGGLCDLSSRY

[2] = biological target: T1, human melanocortin 4 receptor; assay: 125I-NDP-MSH competition, HEK293 cells
[3] = biological target: T2, mouse melanocortin 1 receptor (mouse, UniProt Q01727 1-315); assay: 125I-NDP-MSH competition, HEK293 cells
T2 construct: whole, on cells; also called mMC1R; MC1R
T2 sequence (Q01727 whole entry): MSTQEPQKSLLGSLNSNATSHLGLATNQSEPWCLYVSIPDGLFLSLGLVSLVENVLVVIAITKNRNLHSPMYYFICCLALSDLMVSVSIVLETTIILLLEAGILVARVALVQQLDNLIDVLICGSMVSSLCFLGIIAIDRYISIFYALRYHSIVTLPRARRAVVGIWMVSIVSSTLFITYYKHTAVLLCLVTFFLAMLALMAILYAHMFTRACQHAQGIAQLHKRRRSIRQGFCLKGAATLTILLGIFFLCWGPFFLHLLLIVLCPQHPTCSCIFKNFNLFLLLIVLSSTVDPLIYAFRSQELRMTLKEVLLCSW

[4] = biological target: T3, mouse melanocortin 4 receptor (mouse, UniProt P56450 1-332); assay: 125I-NDP-MSH competition, HEK293 cells
T3 construct: whole, on cells; also called mMC4R; MC4R
T3 sequence (P56450 whole entry): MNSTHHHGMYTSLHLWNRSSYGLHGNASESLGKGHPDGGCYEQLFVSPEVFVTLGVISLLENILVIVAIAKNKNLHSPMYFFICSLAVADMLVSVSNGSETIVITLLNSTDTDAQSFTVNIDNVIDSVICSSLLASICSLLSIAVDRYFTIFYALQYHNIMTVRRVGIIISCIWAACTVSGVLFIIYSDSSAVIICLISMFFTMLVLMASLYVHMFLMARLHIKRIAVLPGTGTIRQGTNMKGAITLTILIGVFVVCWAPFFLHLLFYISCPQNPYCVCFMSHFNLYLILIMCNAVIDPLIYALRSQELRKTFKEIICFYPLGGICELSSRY

[5] = biological target: T4, mouse melanocortin 5 receptor (mouse, UniProt P41149 1-325); assay: 125I-NDP-MSH competition, HEK293 cells
T4 construct: whole, on cells; also called mMC5R; MC5R
T4 sequence (P41149 whole entry): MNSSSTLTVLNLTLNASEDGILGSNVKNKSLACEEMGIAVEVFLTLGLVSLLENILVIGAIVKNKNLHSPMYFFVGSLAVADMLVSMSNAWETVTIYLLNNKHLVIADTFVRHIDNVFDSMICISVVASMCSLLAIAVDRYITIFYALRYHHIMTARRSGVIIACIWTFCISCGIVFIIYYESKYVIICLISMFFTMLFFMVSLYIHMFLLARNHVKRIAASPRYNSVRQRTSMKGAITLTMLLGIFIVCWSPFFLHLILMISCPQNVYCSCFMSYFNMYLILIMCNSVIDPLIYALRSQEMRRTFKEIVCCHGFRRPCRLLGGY

[6] = biological target: T5, mouse melanocortin 3 receptor (mouse, UniProt P33033 1-323); assay: 125I-NDP-MSH competition, HEK293 cells
T5 construct: whole, on cells; also called mMC3R; MC3R
T5 sequence (P33033 whole entry): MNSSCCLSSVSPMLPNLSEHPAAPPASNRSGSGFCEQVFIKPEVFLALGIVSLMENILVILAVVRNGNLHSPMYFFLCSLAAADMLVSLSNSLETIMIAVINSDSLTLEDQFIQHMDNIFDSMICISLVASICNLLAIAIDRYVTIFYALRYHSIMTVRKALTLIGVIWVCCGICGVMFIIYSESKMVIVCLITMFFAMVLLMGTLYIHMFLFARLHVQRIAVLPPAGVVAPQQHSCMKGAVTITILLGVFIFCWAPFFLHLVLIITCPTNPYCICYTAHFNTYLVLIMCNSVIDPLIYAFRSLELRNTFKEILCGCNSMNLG

[7] = biological target: T2, mouse melanocortin 1 receptor; assay: cell-based or functional assay
[8] = biological target: T3, mouse melanocortin 4 receptor; assay: cell-based or functional assay
[9] = biological target: T4, mouse melanocortin 5 receptor; assay: cell-based or functional assay
[10] = biological target: T5, mouse melanocortin 3 receptor; assay: cell-based or functional assay
[11] = biological target: T1, human melanocortin 4 receptor; assay: 125I-NDP-MSH competition; fold vs SEQ ID NO: 1 control
[12] = biological target: T2, mouse melanocortin 1 receptor; assay: as above
[13] = biological target: T3, mouse melanocortin 4 receptor; assay: as above
[14] = biological target: T4, mouse melanocortin 5 receptor; assay: as above
[15] = biological target: T5, mouse melanocortin 3 receptor; assay: as above
[16] = biological target: T3, mouse melanocortin 4 receptor; assay: cell-based or functional assay; remark: listed apart in the source
[17] = biological target: T4, mouse melanocortin 5 receptor; assay: cell-based or functional assay; remark: listed apart in the source
[18] = biological target: T5, mouse melanocortin 3 receptor; assay: cell-based or functional assay; remark: listed apart in the source

pA2 (Schild analysis, agonist NDP-MSH, cAMP) [1]	IC50 [2] [µM]	IC50 [3] [µM]	IC50 [4] [µM]	Fold Diff [11] [fold]	Fold Diff [12] [fold]	Fold Diff [13] [fold]	further results	Binder
7.8	0.25	15	0.038	3	2	2	IC50 [5]: 29 µM; IC50 [6]: 53 µM; percent maximal stimulatory response at 100 µM (cAMP) [7]: 23%; pA2 (Schild analysis, agonist NDP-MSH, cAMP) [8]: 7.2; percent maximal stimulatory response at 100 µM (cAMP) [8]: 16%; EC50 (cAMP agonist) [9]: > 100 µM; pA2 (Schild analysis, agonist NDP-MSH, cAMP) [9]: 6.1; EC50 (cAMP agonist) [10]: > 100 µM; pA2 (Schild analysis, agonist NDP-MSH, cAMP) [10]: 5.9; Fold Diff [14]: 2 fold; Fold Diff [15]: 3 fold	B1
5.8	19.3	24.6	1.9	300	3	90	pA2 (Schild analysis, agonist NDP-MSH, cAMP) [16]: 5.9; pA2 (Schild analysis, agonist NDP-MSH, cAMP) [17]: < 5; pA2 (Schild analysis, agonist NDP-MSH, cAMP) [18]: < 5	B2
